Assay results from patent US20030027165A1 (published 2003).

T1: pol κ76, 76-kDa alternatively spliced isoform of DNA polymerase κ (human, UniProt Q9UBT6 1-870)
T1 construct: 672-residue open reading frame (GenBank AF315602), cloned by RT-PCR from human foreskin RNA with ON-DIN5'm and ON-DIN-THc; It was inserted BamHI/SalI into FLAG-modified pGBT9 and pGAD424; also called 76-kDa pol κ isoform; not shown: N-terminal yeast two-hybrid fusion part from the FLAG-modified pGBT9 or pGAD424 vector (Clontech) plus FLAG peptide; No
T1 sequence: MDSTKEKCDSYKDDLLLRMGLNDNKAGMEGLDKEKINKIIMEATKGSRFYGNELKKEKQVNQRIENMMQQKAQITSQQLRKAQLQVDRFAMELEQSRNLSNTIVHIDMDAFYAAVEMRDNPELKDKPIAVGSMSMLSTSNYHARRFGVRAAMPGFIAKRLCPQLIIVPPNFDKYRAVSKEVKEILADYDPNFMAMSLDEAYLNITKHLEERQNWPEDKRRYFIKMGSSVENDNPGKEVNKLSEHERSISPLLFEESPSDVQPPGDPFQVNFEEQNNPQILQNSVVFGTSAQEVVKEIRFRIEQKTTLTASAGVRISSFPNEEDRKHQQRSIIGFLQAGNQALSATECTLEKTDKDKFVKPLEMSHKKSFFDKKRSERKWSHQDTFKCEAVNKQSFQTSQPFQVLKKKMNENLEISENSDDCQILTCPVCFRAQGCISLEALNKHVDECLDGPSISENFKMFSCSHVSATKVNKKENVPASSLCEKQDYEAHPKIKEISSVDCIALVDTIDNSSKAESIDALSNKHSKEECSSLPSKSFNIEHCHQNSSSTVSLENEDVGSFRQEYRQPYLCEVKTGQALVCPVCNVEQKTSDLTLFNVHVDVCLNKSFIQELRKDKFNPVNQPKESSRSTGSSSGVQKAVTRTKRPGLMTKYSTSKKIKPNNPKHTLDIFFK

T2: pol κ, DNA polymerase κ, the primary protein product of POLK (human, UniProt Q9UBT6 1-870)
T2 construct: not shown: N-terminal yeast two-hybrid fusion part from the FLAG-modified pGBT9 or pGAD424 vector (Clontech) plus FLAG peptide; No
T2 sequence (looked up): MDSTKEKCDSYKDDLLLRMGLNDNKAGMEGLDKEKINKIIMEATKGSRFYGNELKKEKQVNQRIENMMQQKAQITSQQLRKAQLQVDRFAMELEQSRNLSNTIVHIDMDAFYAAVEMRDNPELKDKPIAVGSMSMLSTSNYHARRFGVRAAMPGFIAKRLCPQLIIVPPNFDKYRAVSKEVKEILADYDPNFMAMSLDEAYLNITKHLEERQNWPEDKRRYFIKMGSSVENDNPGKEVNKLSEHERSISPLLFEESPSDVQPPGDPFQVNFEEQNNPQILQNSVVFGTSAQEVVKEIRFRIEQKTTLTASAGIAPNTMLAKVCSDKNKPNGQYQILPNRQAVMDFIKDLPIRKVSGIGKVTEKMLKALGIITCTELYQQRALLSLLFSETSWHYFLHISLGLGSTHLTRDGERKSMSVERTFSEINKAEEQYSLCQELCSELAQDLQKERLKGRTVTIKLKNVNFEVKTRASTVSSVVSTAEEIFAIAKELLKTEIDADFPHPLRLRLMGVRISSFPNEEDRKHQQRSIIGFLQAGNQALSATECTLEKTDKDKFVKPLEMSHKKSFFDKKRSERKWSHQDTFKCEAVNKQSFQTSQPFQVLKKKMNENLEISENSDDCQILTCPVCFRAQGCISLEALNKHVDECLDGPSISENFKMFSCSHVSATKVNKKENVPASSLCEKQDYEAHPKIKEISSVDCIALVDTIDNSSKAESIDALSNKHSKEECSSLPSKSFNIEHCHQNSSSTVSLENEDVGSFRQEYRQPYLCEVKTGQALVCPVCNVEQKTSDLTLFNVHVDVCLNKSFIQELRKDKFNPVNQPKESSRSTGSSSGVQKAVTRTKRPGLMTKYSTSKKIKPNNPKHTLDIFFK


Tests used:
[1] = biological target: T1, pol κ76, 76-kDa alternatively spliced …; assay: yeast two-hybrid
[2] = biological target: T2, pol κ, DNA polymerase κ, the primary …; assay: yeast two-hybrid

| Binder | binding result [1] | binding result [2] |
| --- | --- | --- |
| Goodpasture antigen binding protein (GPBP) (enzyme, human, UniProt Q9Y5P4 1-624, looked up) MSDNQSWNSSGSEEDPETESGPPVERCGVLSKWTNYIHGWQDRWVVLKNNALSYYKSEDETEYGCRGSICLSKAVITPHDFDECRFDISVNDSVWYLRAQDPDHRQQWIDAIEQHKTESGYGSESSLRRHGSMVSLVSGASGYSATSTSSFKKGHSLREKLAEMETFRDILCRQVDTLQKYFDACADAVSKDELQRDKVVEDDEDDFPTTRSDGDFLHSTNGNKEKLFPHVTPKGINGIDFKGEAITFKATTAGILATLSHCIELMVKREDSWQKRLDKETEKKRRTEEAYKNAMTELKKKSHFGGPDYEEGPNSLINEEEFFDAVEAALDRQDKIEEQSQSEKVRLHWPTSLPSGDAFSSVGTHRFVQKPYSRSSSMSSIDLVSASDDVHRFSSQVEEMVQNHMTYSLQDVGGDANWQLVVEEGEMKVYRREVEENGIVLDPLKATHAVKGVTGHEVCNYFWNVDVRNDWETTIENFHVVETLADNAIIIYQTHKRVWPASQRDVLYLSVIRKIPALTENDPETWIVCNFSVDHDSAPLNNRCVRAKINVAMICQTLVSPPEGNQEISRDNILCKITYVANVNPGGWAPASVLRAVAKREYPKFLKRFTSYVQEKTAGKPILF | no binding | no binding |
| GPBPΔ26, alternatively spliced GPBP variant deleted for 26 amino acid residues (enzyme, The two-hybrid construct is not described; also called GPBP?26; GPBPD26) MSDNQSWNSSGSEEDPETESGPPVERCGVLSKWTNYIHGWQDRWVVLKNNALSYYKSEDETEYGCRGSICLSKAVITPHDFDECRFDISVNDSVWYLRAQDPDHRQQWIDAIEQHKTESGYGSESSLRRHGSMVSLVSGASGYSATSTSSFKKGHSLREKLAEMETFRDILCRQVDTLQKYFDACADAVSKDELQRDKVVEDDEDDFPTTRSDGDFLHSTNGNKEKLFPHVTPKGINGIDFKGEAITFKATTAGILATLSHCIELMVKREDSWQKRLDKETEKKRRTEEAYKNAMTELKKKSHFGGPDYEEGPNSLINEEEFFDAVEAALDRQDKIEEQSQSEKVRLHWPTSLPSGDAFSSVGTHRFVQKVEEMVQNHMTYSLQDVGGDANWQLVVEEGEMKVYRREVEENGIVLDPLKATHAVKGVTGHEVCNYFWNVDVRNDWETTIENFHVVETLADNAIIIYQTHKRVWPASQRDVLYLSVIRKIPALTENDPETWIVCNFSVDHDSAPLNNRCVRAKINVAMICQTLVSPPEGNQEISRDNILCKITYVANVNPGGWAPASVLRAVAKREYPKFLKRFTSYVQEKTAGKPILF | no binding | no binding |
